± gives the half width of the 95% confidence interval.
Columns and labels:
[1] = folding stability dG unfold from trypsin proteolysis; higher = more stable
Procedure, shortened: (§1)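 Bayesian fitting of sequencing counts gave K50 for each design. Unfolding free energy followed by setting this against a sequence-predicted unfolded-state K50 and a shared folded-state K50, either per protease or with trypsin and chymotrypsin combined. The designs, under 80 residues and lacking cysteine, were digested in a PA-tagged cDNA display format at 11 threefold-diluted protease concentrations and without protease, and only those with AlphaFold2 dimer inter-PAE above 15 were kept.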

[2] = folding stability dG unfold from chymotrypsin proteolysis; higher = more stable
Procedure, shortened: as §1

[3] = folding stability dG unfold (combined trypsin and chymotrypsin); higher = more stable
Procedure, shortened: as §1

| Sequence | folding stability dG unfold [1] [kcal/mol] | folding stability dG unfold [2] [kcal/mol] | folding stability dG unfold [3] [kcal/mol] |
| --- | --- | --- | --- |
| SAGGSAGGSAGPKIEIEKLPGPYYLLKIYLPDENGNPIEALVVATSPEEAVEKLKELLKSSAGGSAGGSAGG [r11_819_TrMRF] | 3.21 ± 0.14 | 3.15 ± 0.043 | 3.18 ± 0.098 |
| SAGGSAGGSAGMVKSLSELLAENPDLSIEEIKAKLEKEGYKVEVKKEGDTPVVYIKKGKKSAGGSAGGSAGG [r11_707_JUSTAS] | 1.43 ± 0.04 | 0.765 ± 0.14 | 1.12 ± 0.16 |
| SGIGEMSPEEIAKRLAEELGLSGIEVSVSTEGNTLTIPVKAKDPVKNEEITITITITPENGGKIKITTAGSA [r9_1042_JUSTAS] | 0.397 ± 0.12 | 0.299 ± 0.057 | 0.444 ± 0.21 |
| SAGGSAGGSAKETLRMELELEIDGVVVRVEAEVELDPETNELHIRVKVEVEPLPPPLPPGLESAGGSAGGSA [r18_16_TrROS_Hall] | 1.2 ± 0.2 | 2.53 ± 0.34 | 2.32 ± 0.33 |
| SAGGSAMPKYVISGIYRLPDKTLFFDYVIPPGLAENPERVKELAEEIRELLEQLGYPAVDFKIEPVSAGGSA [r15_781_TrMRF] | 1.65 ± 0.043 | 2.09 ± 0.065 | 1.99 ± 0.098 |
| SPDPGMKPRPMYMIRIKIEVTTPDGKKRGKHDFIIQSPEEAKEFIEELAENRGMKIKKIDIDIYPMPWLKSA [r9_1226_TrROS] | 1.5 ± 0.044 | 2.56 ± 0.061 | 2.18 ± 0.1 |
| SAGGSAGGSKGPVVILIFRPKYNPVKGIELEVEEVIVVSPEELSLSALGPALEEKEGYALILPSAGGSAGGS [r20_75_TrMRF] | 1.26 ± 0.015 | 1.32 ± 0.068 | 1.37 ± 0.038 |
| SAKEEEKKKKKEKKKPKPKTVEITVYINGKKIKKIKFNKKTKKITITLENGKKITIPPGMSLEEILKKLSAG [r14_59_TrROS_Hall] | 2.16 ± 0.16 | 3.37 ± 0.1 | 2.88 ± 0.24 |
| SMVTVTFPDASPEEIRAAIEAHPDRDVVLVTAPGKEEELEKILKEYDYTKEEKALPDGRKVRVMKVKVPRSA [r9_1138_JUSTAS] | 0.784 ± 0.14 | 0.176 ± 0.42 | 0.462 ± 0.25 |
| SAGSKKYIPKEVTVYVLGTAPPDMSLEEALKNPNFAVSVPLKATVIYDPETKTARVLLPDGTVVEFPVPSAG [r5_701_TrMRF] | 1.5 ± 0.049 | 1.44 ± 0.11 | 1.52 ± 0.1 |
| SAGGSPNIQVNVERDPKDGYIKFSITVPPGAPNMKIKIAIFENDKIVEKEEITMPPGKTTEYTFKIKSAGGS [r16_412_TrROS] | 3.29 ± 0.16 | 4.13 ± 0.065 | 3.6 ± 0.38 |
| SAGGSAGGSAGAVFTLPDGMKITIEKNEDGTYTITIETDGKTETIEIKPGETIEIEIFPPSAGGSAGGSAGG [r11_164_TrROS_Hall] | 2.43 ± 0.093 | 3.202 ± 0.03 | 2.91 ± 0.077 |
| SAGGSAGGSAGGSSIEELRRSPEVEVEVSTEKLPNGKTVTTVTLTPPDGVPTTIVLPEGSAGGSAGGSAGGS [r4_70_JUSTAS] | 0.266 ± 0.075 | 1.17 ± 0.041 | 0.978 ± 0.14 |
| SAGGMTFTITVTIPAKEKFYDPSKGIWRERELNRVITIPFSSSDIEKAKEEVRSKLPPDKYKITSVDSAGGS [r16_459_JUSTAS] | 1.29 ± 0.04 | 1.21 ± 0.17 | 1.19 ± 0.12 |
| SAGGSAGGSMVRVTRLPDGTYRIEIELPGESLEREARGPEEVEALAEEIEKETGVPVEIETLESAGGSAGGS [r12_783_JUSTAS] | 1.1 ± 0.068 | 0.908 ± 0.096 | 0.945 ± 0.14 |
| SAGGSAGGSMKTIELPNGMKITVEKDEETGVYTITITFPDGSKKTITVPKGTSLEDLVIEIKPSAGGSAGGS [r12_261_TrROS_Hall] | 2.54 ± 0.095 | 4.38 ± 0.21 | 4.04 ± 0.13 |
| SAGGSAGGSAPRPIEIMFPWDSPEDAHEEAEEIARTFAQEDNIKVKVEYYPREGWVKVKIRVSAGGSAGGSA [r18_368_TrROS] | 1.21 ± 0.085 | 1.57 ± 0.34 | 1.38 ± 0.21 |
| EVETYPDGTVVTTLPPEVTADIPADEPVNLRTLIFDPDGYLYLSTATRTPDGTVTYTVSITPIPVGPELLLS [r1_394_JUSTAS] | 1.44 ± 0.029 | 1.63 ± 0.083 | 1.54 ± 0.077 |
| SALEANIKKAEELAKPEEKVPEFPVKVGDLYIKSVRFFPSTKKVVLFLPNGEKIEADPNVTLEEILKAISAG [r14_59_TrMRF] | 0.759 ± 0.075 | 0.254 ± 0.13 | 0.51 ± 0.15 |
| SAGGMLVTFTTPDGKTVTVEVDSLEEAKKVIAEKLGLPPDTVLDVTVTDPVTGEVTSETVTIPVPVPESAGG [r13_145_JUSTAS] | 3.3 ± 0.09 | 3.99 ± 0.07 | 3.96 ± 0.049 |
| SMISLEKETSLPPEEARRAVERFLAELPEVERLLSVEVREDPDSYTVSLTLEGGAVSPEVLEAIERALAASA [r9_195_JUSTAS] | 2.54 ± 0.053 | 2.71 ± 0.039 | 2.63 ± 0.062 |
